Results: US20170342107A1 (REGENTS OF THE UNIVERSITY OF MINNESOTA, published 2017)
Square brackets hold non-standard residues; d marks the D form. * marks the point of attachment. Phe(4-I) = N[C@@H](Cc1ccc(I)cc1)C(=O)O; dPhe(4-I) = N[C@H](Cc1ccc(I)cc1)C(=O)O; Bta = N[C@@H](Cc1csc2ccccc12)C(=O)O; Tic = O=C(O)[C@@H]1Cc2ccccc2CN1; dTic = O=C(O)[C@H]1Cc2ccccc2CN1; For = O=C*

How the values were obtained:
[1] = target: mouse melanocortin-1 receptor (mouse, UniProt Q01727 1-315); assay: cell-based or functional assay
[2] = target: T1, mouse melanocortin-5 receptor (mouse, UniProt P41149 1-325); assay: cell-based or functional assay
[3] = target: T2, mouse melanocortin-3 receptor (mouse, UniProt P33033 1-323); assay: 125I-NDP-MSH competitive displacement, HEK293 cells stably expressing mMC3R
T2 construct: whole, on cells; also called mMC3R; MC3R
Description: (§1) A typical experiment utilized a 12-well format.

[4] = target: T2, mouse melanocortin-3 receptor; assay: 125I-NDP-MSH competitive displacement, HEK293 cells stably expressing mMC3R; negative = more potent than control
Description: as §1

[5] = target: T3, mouse melanocortin-4 receptor (mouse, UniProt P56450 1-332); assay: 125I-NDP-MSH competitive displacement, HEK293 cells stably expressing mMC4R; negative = more potent than control
T3 construct: whole, on cells; also called mMC4R; MC4R
Description: as §1

[6] = target: T2, mouse melanocortin-3 receptor; assay: cell-based or functional assay
[7] = target: T3, mouse melanocortin-4 receptor; assay: cell-based or functional assay
[8] = target: T3, mouse melanocortin-4 receptor; assay: cell-based or functional assay; remark: listed apart in the source
[9] = target: T2, mouse melanocortin-3 receptor; assay: cell-based or functional assay; remark: listed apart in the source
[10] = target: T1, mouse melanocortin-5 receptor; assay: cell-based or functional assay; remark: listed apart in the source

T2 sequence (P33033 whole entry): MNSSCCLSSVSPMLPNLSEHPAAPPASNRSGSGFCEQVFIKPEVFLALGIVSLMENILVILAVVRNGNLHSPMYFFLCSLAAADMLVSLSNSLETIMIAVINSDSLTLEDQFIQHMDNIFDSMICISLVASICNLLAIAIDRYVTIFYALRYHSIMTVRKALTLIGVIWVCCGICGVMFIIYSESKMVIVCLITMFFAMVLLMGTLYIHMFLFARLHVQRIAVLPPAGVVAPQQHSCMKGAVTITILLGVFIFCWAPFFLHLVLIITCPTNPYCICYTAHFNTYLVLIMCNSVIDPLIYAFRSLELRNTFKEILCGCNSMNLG
T3 sequence (P56450 whole entry): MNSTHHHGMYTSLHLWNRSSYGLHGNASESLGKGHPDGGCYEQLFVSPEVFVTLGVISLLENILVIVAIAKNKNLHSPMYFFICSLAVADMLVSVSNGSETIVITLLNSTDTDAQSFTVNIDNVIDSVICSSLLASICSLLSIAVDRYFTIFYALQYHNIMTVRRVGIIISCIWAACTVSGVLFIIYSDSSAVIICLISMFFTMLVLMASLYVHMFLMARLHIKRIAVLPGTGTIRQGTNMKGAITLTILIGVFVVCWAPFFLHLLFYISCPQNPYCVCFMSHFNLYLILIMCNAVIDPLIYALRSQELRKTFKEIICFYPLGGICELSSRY
T1 sequence (P41149 whole entry): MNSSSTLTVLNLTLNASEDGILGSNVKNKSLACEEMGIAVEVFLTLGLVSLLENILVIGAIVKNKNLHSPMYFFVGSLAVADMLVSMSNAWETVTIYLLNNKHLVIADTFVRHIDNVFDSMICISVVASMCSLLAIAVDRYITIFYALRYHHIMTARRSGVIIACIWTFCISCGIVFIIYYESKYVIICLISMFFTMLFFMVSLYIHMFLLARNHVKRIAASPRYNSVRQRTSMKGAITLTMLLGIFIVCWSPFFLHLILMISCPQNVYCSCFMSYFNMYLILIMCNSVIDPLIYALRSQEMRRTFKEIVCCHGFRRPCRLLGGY
Sequence of mouse melanocortin-1 receptor (Q01727 whole entry): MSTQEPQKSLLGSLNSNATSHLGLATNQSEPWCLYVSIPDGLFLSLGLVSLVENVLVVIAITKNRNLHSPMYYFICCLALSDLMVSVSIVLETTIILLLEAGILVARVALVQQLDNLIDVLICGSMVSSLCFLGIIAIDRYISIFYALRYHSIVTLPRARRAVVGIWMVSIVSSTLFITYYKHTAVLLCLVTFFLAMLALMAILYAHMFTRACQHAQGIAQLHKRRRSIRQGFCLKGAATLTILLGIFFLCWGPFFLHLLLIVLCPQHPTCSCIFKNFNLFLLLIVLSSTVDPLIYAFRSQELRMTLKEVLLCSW

Question: How did the “fold increase in agonist potency against SKY5-146-7” value [1] turn out when Ac-HR[dPhe(4-I)][Tic]-NH2 [SKY6-24-2, Ac-His-Arg-(pI)DPhe-Tic-NH2] was run?
Answer: 380 fold

Question: And the “fold increase in agonist potency against SKY5-146-7” value [2]?
Answer: 40 fold

Question: Which results are given for Ac-FR[dPhe(4-I)][Bta]-NH2 [SKY4-48-15, Ac-Phe-Arg-(pI)DPhe-3Bal-NH2]?
Answer: IC50 [3]: 5.35 µM; Fold Diff. (IC50 against SKY4-48-1) [4]: -9 fold; Fold Diff. (IC50 against SKY4-48-1) [5]: 7 fold

Question: How did the “fold decreased agonist potency against α-MSH” value [6] turn out when Ac-SYSMEHRFWGKPV-NH2 [SKY2-125-5, (Arg7, Phe8) α-MSH, Ac-Ser-Tyr-Ser-Met-Glu-His-Arg-Phe-Trp-Gly-Lys-Pro-Val-NH2] was run?
Answer: 45000 fold

B1: SKY5-148, For-DTic-(pI)Phe-DArg-DHis-NH2 (peptide)
peptide: For-[dTic][Phe(4-I)][dR][dH]-NH2
SMILES: N=C(N)NCCC[C@@H](NC(=O)[C@H](Cc1ccc(I)cc1)NC(=O)[C@H]1Cc2ccccc2CN1C=O)C(=O)N[C@H](Cc1c[nH]cn1)C(N)=O
Question: How did the “Antagonist Ki” value [7] turn out when B1 was run?
Answer: > 3.1 µM

Question: And the “Agonist, % of NDP-MSH maximal response” value [8]?
Answer: 71 % @ 100 µM

Question: And the “pA2 (antagonist)” value [8]?
Answer: 5.4 pA2

Question: What about the “pA2 (antagonist)” value [9] of the same binder?
Answer: 6.8 pA2

B2: SKY5-121, Ac-DTrp-DArg-Phe-DHis-NH2 (peptide)
peptide: Ac-[dW][dR]F[dH]-NH2
SMILES: CC(=O)N[C@H](Cc1c[nH]c2ccccc12)C(=O)N[C@H](CCCNC(=N)N)C(=O)N[C@@H](Cc1ccccc1)C(=O)N[C@H](Cc1c[nH]cn1)C(N)=O
Question: B2 was tested. Which “Agonist, % of NDP-MSH maximal response” value [10] did it give?
Answer: 29 % @ 100 µM
